Measurements reported in IntAct's records for PubMed 20150898.

B1: Actin cytoskeleton-regulatory complex protein SLA1 (Saccharomyces cerevisiae), P32790 (parent)
chain: MTVFLGIYRAVYAYEPQTPEELAIQEDDLLYLLQKSDIDDWWTVKKRVIGSDSEEPVGLVPSTYIEEAPVLKKVRAIYDYEQVQNADEELTFHENDVFDVFDDKDADWLLVKSTVSNEFGFIPGNYVEPENGSTSKQEQAPAAAEAPAATPAAAPASAAVLPTNFLPPPQHNDRARMMQSKEDQAPDEDEEGPPPAMPARPTATTETTDATAAAVRSRTRLSYSDNDNDDEEDDYYYNSNSNNVGNHEYNTEYHSWNVTEIEGRKKKKAKLSIGNNKINFIPQKGTPHEWSIDKLVSYDNEKKHMFLEFVDPYRSLELHTGNTTTCEEIMNIIGEYKGASRDPGLREVEMASKSKKRGIVQYDFMAESQDELTIKSGDKVYILDDKKSKDWWMCQLVDSGKSGLVPAQFIEPVRDKKHTESTASGIIKSIKKNFTKSPSRSRSRSRSKSNANASWKDDELQNDVVGSAAGKRSRKSSLSSHKKNSSATKDFPNPKKSRLWVDRSGTFKVDAEFIGCAKGKIHLHKANGVKIAVAADKLSNEDLAYVEKITGFSLEKFKANDGSSSRGTDSRDSERERRRRLKEQEEKERDRRLKERELYELKKARELLDEERSRLQEKELPPIKPPRPTSTTSVPNTTSVPPAESSNNNNSSNKYDWFEFFLNCGVDVSNCQRYTINFDREQLTEDMMPDINNSMLRTLGLREGDIVRVMKHLDKKFGRENIASIPTNATGNMFSQPDGSLNVATSPETSLPQQLLPQTTSPAQTAPSTSAETDDAWTVKPASKSESNLLSKKSEFTGSMQDLLDLQPLEPKKAAASTPEPNLKDLEPVKTGGTTVPAAPVSSAPVSSAPAPLDPFKTGGNNILPLSTGFVMMPMITGGDMLPMQRTGGFVVPQTTFGMQSQVTGGILPVQKTGNGLIPISNTGGAMMPQTTFGAAATVLPLQKTGGGLIPIATTGGAQFPQTSFNVQGQQQLPTGSILPVQKTANGLISANTGVSMPTVQRTGGTMIPQTSFGVSQQLTGGAMMTQPQNTGSAMMPQTSFNAVPQITGGAMMPQTSFNALPQVTGGAMMPLQRTGGALNTFNTGGAMIPQTSFSSQAQNTGGFRPQSQFGLTLQKTGGIAPLNQNQFTGGAMNTLSTGGVLQQQQPQTMNTFNTGGVMQELQMMTTFNTGGAMQQPQMMNTFNTDGIMQQPQMMNTFNTGGAMQQPQQQALQNQPTGFGFGNGPQQSRQANIFNATASNPFGF

Columns and labels:
clh_yeast CHC1, P22137 [1] = variants of: B1; conditions: with clh_yeast CHC1, P22137
clh_yeast CHC1, P22137 [2] = variants of: B1; conditions: with clh_yeast CHC1, P22137; remark: listed apart in the source

clh_yeast CHC1, P22137, sequence (P22137 whole entry): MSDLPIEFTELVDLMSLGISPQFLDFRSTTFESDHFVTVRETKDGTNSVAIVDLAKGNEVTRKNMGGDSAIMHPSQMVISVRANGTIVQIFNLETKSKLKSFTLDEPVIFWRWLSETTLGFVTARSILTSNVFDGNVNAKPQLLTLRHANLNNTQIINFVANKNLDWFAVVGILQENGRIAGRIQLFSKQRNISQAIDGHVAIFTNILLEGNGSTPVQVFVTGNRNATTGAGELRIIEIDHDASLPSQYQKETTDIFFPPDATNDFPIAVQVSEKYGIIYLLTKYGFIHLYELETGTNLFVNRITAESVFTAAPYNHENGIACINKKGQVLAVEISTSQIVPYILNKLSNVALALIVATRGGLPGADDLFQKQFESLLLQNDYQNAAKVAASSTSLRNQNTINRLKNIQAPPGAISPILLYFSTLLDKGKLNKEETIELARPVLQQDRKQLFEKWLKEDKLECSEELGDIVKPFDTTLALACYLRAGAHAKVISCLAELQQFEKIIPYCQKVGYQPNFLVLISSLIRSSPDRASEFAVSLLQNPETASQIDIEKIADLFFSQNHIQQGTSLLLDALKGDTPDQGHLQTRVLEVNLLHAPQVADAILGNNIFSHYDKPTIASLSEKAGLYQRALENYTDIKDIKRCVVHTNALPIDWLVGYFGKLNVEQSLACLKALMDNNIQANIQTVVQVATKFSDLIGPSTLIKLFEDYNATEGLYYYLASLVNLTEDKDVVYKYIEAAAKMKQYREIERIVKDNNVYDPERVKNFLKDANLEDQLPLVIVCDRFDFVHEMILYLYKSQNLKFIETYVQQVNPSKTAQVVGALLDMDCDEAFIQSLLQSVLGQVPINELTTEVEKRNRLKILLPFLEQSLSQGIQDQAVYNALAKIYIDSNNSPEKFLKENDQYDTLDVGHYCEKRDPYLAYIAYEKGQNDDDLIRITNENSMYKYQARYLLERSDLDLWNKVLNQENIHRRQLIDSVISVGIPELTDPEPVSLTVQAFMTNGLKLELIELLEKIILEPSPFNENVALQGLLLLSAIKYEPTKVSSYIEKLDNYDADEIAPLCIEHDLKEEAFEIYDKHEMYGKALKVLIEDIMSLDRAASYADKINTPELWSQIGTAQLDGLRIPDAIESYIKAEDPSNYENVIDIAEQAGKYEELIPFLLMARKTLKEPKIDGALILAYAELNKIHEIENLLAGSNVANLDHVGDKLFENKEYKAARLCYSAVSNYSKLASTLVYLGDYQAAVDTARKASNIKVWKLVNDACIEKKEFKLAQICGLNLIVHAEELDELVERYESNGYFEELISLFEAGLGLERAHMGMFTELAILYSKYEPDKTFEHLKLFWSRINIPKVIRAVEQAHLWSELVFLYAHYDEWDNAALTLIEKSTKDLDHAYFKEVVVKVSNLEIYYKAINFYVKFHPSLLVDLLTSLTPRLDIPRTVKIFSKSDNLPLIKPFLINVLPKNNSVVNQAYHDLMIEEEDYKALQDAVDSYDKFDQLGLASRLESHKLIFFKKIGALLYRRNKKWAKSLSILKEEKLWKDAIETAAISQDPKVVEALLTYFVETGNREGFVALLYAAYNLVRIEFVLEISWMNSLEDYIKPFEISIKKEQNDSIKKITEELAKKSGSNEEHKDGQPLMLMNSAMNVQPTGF

effect of a mutation on the interaction (clh_yeast CHC1, P22137 [1])	effect of a mutation on the interaction (clh_yeast CHC1, P22137 [2])	Variant
decreasing interaction	disrupting interaction	D805A
decreasing interaction	disrupting interaction	L804A
decreasing interaction	disrupting interaction	L803A
